Earlier results, collected in publication PMC9780825, “Combining mKate2-Kv1.3 Channel and Atto488-Hongotoxin for the Studies of Peptide Pore Blockers on Living Eukaryotic Cells” (Toxins, 2022).
pKd: −log10 of the molar value.

Tests used:
Kv1.3 (Mus musculus) = Kv1.3 (Mus musculus) (UniProt P16390); assay: whole-cell patch clamp
Kv1.3 (Homo sapiens) [1] = molecular target: Kv1.3 (Homo sapiens) (UniProt P22001); assay: two-electrode voltage clamp
[2] = molecular target: Kv1.3 (Rattus norvegicus) (UniProt P15384); assay: two-electrode voltage clamp
Sequence of Kv1.3 (Rattus norvegicus) (P15384 whole entry): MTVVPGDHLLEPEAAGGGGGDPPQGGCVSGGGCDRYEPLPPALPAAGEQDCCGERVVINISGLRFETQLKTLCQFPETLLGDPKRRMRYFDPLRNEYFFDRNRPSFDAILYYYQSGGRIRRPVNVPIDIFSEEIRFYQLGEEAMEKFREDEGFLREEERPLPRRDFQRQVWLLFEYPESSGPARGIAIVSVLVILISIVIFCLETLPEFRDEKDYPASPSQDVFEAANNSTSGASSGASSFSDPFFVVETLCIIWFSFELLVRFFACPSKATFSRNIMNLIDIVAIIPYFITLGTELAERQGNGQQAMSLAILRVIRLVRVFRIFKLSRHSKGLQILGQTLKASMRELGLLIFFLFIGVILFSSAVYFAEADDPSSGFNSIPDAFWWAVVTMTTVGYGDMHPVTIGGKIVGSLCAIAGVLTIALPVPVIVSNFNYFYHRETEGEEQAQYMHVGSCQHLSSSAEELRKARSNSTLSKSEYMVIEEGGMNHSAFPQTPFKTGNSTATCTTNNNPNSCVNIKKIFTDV

Kv1.3 (Homo sapiens) [3] = molecular target: Kv1.3 (Homo sapiens) (UniProt P22001); assay: Rb+ efflux
Kv1.3 (Homo sapiens) [4] = molecular target: Kv1.3 (Homo sapiens) (UniProt P22001); assay: radioligand analysis

Sequence of Kv1.3 (Homo sapiens) (P22001 whole entry): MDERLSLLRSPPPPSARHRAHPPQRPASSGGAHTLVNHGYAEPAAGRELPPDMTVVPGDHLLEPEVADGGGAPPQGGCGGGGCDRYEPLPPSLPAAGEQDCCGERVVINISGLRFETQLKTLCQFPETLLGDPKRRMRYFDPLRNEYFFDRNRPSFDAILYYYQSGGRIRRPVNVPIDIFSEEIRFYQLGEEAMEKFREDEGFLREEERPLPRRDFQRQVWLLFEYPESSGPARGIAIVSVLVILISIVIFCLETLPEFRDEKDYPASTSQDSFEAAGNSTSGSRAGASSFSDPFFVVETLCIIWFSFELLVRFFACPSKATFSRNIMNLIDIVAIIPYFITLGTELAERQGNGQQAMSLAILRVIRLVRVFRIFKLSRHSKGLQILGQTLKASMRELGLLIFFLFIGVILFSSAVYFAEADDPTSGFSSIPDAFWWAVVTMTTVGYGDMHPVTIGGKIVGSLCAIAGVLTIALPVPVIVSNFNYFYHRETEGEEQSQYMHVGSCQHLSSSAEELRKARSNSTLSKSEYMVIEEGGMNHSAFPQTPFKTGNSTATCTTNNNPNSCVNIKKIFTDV
Sequence of Kv1.3 (Mus musculus) (P16390 whole entry): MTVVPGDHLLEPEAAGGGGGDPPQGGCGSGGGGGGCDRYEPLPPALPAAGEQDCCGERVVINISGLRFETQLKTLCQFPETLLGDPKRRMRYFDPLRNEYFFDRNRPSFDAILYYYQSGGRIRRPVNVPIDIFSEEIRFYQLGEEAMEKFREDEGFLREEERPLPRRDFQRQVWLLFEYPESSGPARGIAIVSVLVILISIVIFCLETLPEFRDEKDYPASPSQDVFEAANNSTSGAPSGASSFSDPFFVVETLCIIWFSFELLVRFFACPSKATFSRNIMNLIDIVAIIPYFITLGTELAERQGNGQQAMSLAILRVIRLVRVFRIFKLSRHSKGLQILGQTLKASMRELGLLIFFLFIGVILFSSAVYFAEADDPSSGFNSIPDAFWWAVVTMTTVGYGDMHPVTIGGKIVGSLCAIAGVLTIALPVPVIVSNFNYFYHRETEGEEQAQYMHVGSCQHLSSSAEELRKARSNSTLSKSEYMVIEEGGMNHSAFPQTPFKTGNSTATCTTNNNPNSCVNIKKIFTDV
Sequence of agitoxin 2 (P46111 whole entry): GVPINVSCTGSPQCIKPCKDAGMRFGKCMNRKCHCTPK
Sequence of hongotoxin 1 (P59847 whole entry): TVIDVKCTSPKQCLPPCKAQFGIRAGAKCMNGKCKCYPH
Sequence of kaliotoxin 1 (P24662 whole entry): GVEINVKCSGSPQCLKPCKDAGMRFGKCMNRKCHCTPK
Sequence of charybdotoxin (P13487 23-59): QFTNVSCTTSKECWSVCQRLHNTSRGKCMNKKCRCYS

## agitoxin 2 (from UniProt P46111)
Kv1.3 (Mus musculus)
  pKd: 9.70
Kv1.3 (Homo sapiens) [1]
  pKd: 10.30
[2]
  pKd: 11.40

## charybdotoxin (from UniProt P13487)
Kv1.3 (Mus musculus)
  pKd: 8.52
Kv1.3 (Homo sapiens) [1]
  pKd: 9.05

## hongotoxin 1 (from UniProt P59847)
Kv1.3 (Homo sapiens) [3]
  pKd: 10.07
Kv1.3 (Homo sapiens) [4]
  pKd: 12.62

## kaliotoxin 1 (from UniProt P24662)
Kv1.3 (Mus musculus)
  pKd: 9.19
Kv1.3 (Homo sapiens) [1]
  pKd: 11.00
